Experiments:
STF-1 + Pbx1 heterodimer [1] = target: T1, STF-1 + Pbx1 heterodimer (UniProt P52947;P40424 P52947:1-283,P40424:1-430); test: EMSA; minimal effect on cooperativity; conditions: tags: STF-1 recombinant from E. coli; Pbx1 in vitro translated in reticulocyte lysate; label: 32P
From the text: Gel mobility shift assay using TSE II oligonucleotide plus STF-1 and/or Pbx as indicated over each lane. TNT, control lysate. […] Off-rate analysis of STF-1 and STF-1 Pbx complexes using somatostatin TSE II oligonucleotide as probe. Time (in minutes) after addition of excess unlabeled TSE II oligo as indicated. Complexes C1 and C2, corresponding to STF-1 monomer and STF-1/PBX heterodimer, respectively, as indicated. […] TSEII, wild-type TSE II oligonucleotide. P and FLAT, insulin I promoter elements which recognize STF-1 with high affinity. TSEI, somatostatin promoter element which binds STF-1. PBX, in vitro translated PBX protein added to binding reactions; STF, full length recombinant STF-1 protein. […] Brackets indicate consensus TAAT motifs which were targeted for mutagenesis. […] Transient transfection assay of GC cells using STF-1 and E2A-Pbx effector plasmids as indicated below each bar. […] Activities were normalized to co-transfected RSV-CAT control plasmid.
Gel mobility shift assays were performed exactly as described previously (20) using 0.1 ng of end-labeled double stranded oligonucleotide whose sequences are presented in FIG. 2C. For off-rate analysis, the TSEII probe was first incubated with the proteins at room temperature for 30 minutes, then a 1000-fold excess of unlabeled TSEII oligonucleotide was added and aliquots were loaded at various time points on a running gel. […]

STF-1 (IPF1/IDX-1/PDX1) [2] = target: T2, STF-1 (IPF1/IDX-1/PDX1) (UniProt P52947 P52947:1-283); test: EMSA; high affinity site; conditions: tags: GST fusion (pGEX3X, E. coli), GST removable by factor Xa; label: 32P
STF-1 + Pbx1 heterodimer [3] = target: T1, STF-1 + Pbx1 heterodimer; test: EMSA; no heteromeric complex; no synergy in reporter assay; conditions: tags: STF-1 recombinant from E. coli; Pbx1 in vitro translated in reticulocyte lysate; label: 32P
Protocol: (§1) Gel mobility shift assays were performed exactly as described previously (20) using 0.1 ng of end-labeled double stranded oligonucleotide whose sequences are presented in FIG. 2C. For off-rate analysis, the TSEII probe was first incubated with the proteins at room temperature for 30 minutes, then a 1000-fold excess of unlabeled TSEII oligonucleotide was added and aliquots were loaded at various time points on a running gel. In supershift assays, TU6 nuclear cell extract was preincubated with 1 µl of Pbx (11) or STF-antiserum (20) for 15 minutes at room temperature before adding the TSEII probe.
To determine whether Pbx and STF-1 can bind cooperatively to other STF-1 target sites besides TSEII, gel shift assays were performed with the recombinant STF-1 and Pbx proteins on the somatostatin TSEI or insulin P and Flat elements, sites which bind STF-1 and which are required for islet cell restricted expression of the rat somatostatin and insulin I genes, respectively, in pancreatic cells (FIG. 2D and FIG. 2E). In contrast to the TSEII element (FIG. 2D, lanes 1–4), no heteromeric STF-1-Pbx complex was observed on the TSEI, P or FLAT elements. Indeed, heteromeric STF-1 complexes are also undetectable when the TSEI, P, or FLAT elements are used in gel shift assays of crude pancreatic cell extracts (data not shown) (20). […]

[4] = target: STF-1 FPWMK to AAGGQ mutant (UniProt P52947 P52947:1-283, FPWMK to AAGGQ); test: EMSA; wild-type binding activity; conditions: label: 32P
STF-1 + Pbx1 heterodimer [5] = target: T1, STF-1 + Pbx1 heterodimer; test: EMSA; no heteromeric complex; conditions: tags: STF-1 recombinant from E. coli; Pbx1 in vitro translated in reticulocyte lysate; label: 32P
Protocol: as §1
(§2) To determine whether Pbx and STF-1 can bind cooperatively to other STF-1 target sites besides TSEII, gel shift assays were performed with the recombinant STF-1 and Pbx proteins on the somatostatin TSEI or insulin P and Flat elements, sites which bind STF-1 and which are required for islet cell restricted expression of the rat somatostatin and insulin I genes, respectively, in pancreatic cells (FIG. 2D and FIG. 2E). In contrast to the TSEII element (FIG. 2D, lanes 1–4), no heteromeric STF-1-Pbx complex was observed on the TSEI, P or FLAT elements. Indeed, heteromeric STF-1 complexes are also undetectable when the TSEI, P, or FLAT elements are used in gel shift assays of crude pancreatic cell extracts (data not shown) (20).

STF-1 (IPF1/IDX-1/PDX1) [6] = target: T2, STF-1 (IPF1/IDX-1/PDX1); test: EMSA; conditions: tags: GST fusion (pGEX3X, E. coli), GST removable by factor Xa; label: 32P
Protocol: as §1, §2

T1 sequence (P52947 whole entry, chain 1 of 2): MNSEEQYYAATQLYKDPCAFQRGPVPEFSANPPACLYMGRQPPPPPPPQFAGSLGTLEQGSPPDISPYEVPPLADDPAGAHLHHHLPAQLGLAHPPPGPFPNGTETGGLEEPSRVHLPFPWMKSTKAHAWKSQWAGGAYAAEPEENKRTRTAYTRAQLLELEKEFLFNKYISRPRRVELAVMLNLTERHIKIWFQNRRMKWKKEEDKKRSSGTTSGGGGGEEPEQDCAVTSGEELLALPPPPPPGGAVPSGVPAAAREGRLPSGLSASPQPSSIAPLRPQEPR
T1 sequence (P40424 whole entry, chain 2 of 2): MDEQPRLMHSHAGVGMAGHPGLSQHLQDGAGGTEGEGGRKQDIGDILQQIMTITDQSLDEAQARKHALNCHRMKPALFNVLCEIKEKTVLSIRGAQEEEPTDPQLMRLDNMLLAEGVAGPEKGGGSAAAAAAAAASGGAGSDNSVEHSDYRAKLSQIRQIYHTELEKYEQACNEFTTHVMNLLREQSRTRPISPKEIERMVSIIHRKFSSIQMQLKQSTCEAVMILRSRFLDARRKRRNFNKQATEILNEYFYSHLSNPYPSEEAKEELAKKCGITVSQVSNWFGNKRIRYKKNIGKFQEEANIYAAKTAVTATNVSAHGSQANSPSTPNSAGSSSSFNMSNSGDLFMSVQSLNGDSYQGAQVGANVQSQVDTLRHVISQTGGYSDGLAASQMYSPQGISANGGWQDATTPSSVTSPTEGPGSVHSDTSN
T2 sequence (P52947 whole entry, the tested form may be a part, one chain of several): as the sequence (P52947 whole entry, chain 1 of 2) above
Chain of STF-1 FPWMK to AAGGQ mutant (P52947 other isoform, or with tags, fused parts or gaps FPWMK to AAGGQ | mutant): as the sequence (P52947 whole entry, chain 1 of 2) above, with F119A, P120A, W121G, M122G, K123Q counted along it

B1: TSEII M3 (dsDNA)
DNA 1: GATCTCAGTAATTATACATGCA
DNA 2: GTACTGCATGTATAATTACTGA
B1: binds (STF-1 + Pbx1 heterodimer [1]).

B2: insulin I P element (dsDNA)
DNA 1: GATCTAGAGCCCTTAATGGGCCAAA
DNA 2: GATCTTTGGCCCATTAAGGGCTCTA
B2: binds (STF-1 (IPF1/IDX-1/PDX1) [2]); no binding (STF-1 + Pbx1 heterodimer [3]); binds [4].

B3: somatostatin TSEI (dsDNA)
DNA 1: GATCTTGCGAGGCTAATGGTGCG
DNA 2: GTACCGCACCATTAGCCTCGCAA
B3: no binding (STF-1 + Pbx1 heterodimer [5]); binds (STF-1 (IPF1/IDX-1/PDX1) [6]).
